What all share (assay): cell-based or functional assay
One assay addresses human GLP-1 receptor (human, UniProt P43220 24-463).
The target in another assay is human glucagon receptor (human, UniProt P47871 26-477).
Assay [1] concerns the target T1, human glucose-dependent insulinotropic peptide receptor (human, UniProt P48546 22-466).
T1 sequence (looked up): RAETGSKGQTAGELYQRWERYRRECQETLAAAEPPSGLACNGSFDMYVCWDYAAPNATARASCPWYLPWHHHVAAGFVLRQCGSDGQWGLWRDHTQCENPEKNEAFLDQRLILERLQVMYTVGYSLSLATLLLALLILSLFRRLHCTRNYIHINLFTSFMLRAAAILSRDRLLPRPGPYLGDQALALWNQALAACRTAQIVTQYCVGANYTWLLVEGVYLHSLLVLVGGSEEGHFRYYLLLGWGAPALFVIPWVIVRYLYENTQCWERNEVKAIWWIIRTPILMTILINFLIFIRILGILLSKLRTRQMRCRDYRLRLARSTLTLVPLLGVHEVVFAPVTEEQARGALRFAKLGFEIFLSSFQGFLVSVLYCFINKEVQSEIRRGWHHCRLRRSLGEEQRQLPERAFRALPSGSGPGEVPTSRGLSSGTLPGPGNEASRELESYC

Starred links: 1 amine or outer side, 2 acyl side, 3 side chain; linkers in the order of their positions; H or OH if unused. Non-standard residues stand in square brackets, D forms with d. Groups on a side chain read outwards from the residue. No end group written: not given here. *: point of attachment. C20 diacid = O=C(O)CCCCCCCCCCCCCCCCCCC(=O)*; γGlu = O=C(O)[C@H](CCC(=O)[*:2])N[*:1]; 4Pal = N[C@@H](Cc1ccncc1)C(=O)O; αMeL = CC(C)C[C@](C)(N)C(=O)O; AEEA = NCCOCCOCC(=O)O; Aib = CC(C)(N)C(=O)O Some results are limits rather than exact numbers.

Sequence of human glucagon receptor (P47871 26-477): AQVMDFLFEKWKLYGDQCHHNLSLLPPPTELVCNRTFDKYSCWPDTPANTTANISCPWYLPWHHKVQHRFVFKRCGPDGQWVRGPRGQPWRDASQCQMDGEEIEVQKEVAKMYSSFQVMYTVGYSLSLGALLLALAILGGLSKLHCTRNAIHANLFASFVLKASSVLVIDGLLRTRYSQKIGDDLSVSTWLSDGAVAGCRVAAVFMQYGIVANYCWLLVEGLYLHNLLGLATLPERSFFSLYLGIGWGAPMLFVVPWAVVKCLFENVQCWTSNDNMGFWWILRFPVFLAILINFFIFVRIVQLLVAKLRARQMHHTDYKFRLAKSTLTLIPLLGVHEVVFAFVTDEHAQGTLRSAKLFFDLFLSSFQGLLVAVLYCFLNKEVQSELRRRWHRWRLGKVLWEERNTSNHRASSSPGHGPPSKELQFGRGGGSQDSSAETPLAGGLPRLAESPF

B1: Example 46 (peptide)
peptide: Y[Aib]EGTFISDYSI[αMeL]LDKK([AEEA-AEEA-γGlu-C20 diacid])HQ[Aib]DFVE[4Pal]LLEQGPSSGAPPPS-NH2
modifications: N-terminus assumed
SMILES: CC[C@H](C)[C@H](NC(=O)[C@H](Cc1ccccc1)NC(=O)[C@@H](NC(=O)CNC(=O)[C@H](CCC(=O)O)NC(=O)C(C)(C)NC(=O)[C@@H](N)Cc1ccc(O)cc1)[C@@H](C)O)C(=O)N[C@@H](CO)C(=O)N[C@@H](CC(=O)O)C(=O)N[C@@H](Cc1ccc(O)cc1)C(=O)N[C@@H](CO)C(=O)N[C@H](C(=O)N[C@@](C)(CC(C)C)C(=O)N[C@@H](CC(C)C)C(=O)N[C@@H](CC(=O)O)C(=O)N[C@@H](CCCCN)C(=O)N[C@@H](CCCCNC(=O)COCCOCCNC(=O)COCCOCCNC(=O)CC[C@H](NC(=O)CCCCCCCCCCCCCCCCCCC(=O)O)C(=O)O)C(=O)N[C@@H](Cc1c[nH]cn1)C(=O)N[C@@H](CCC(N)=O)C(=O)NC(C)(C)C(=O)N[C@@H](CC(=O)O)C(=O)N[C@@H](Cc1ccccc1)C(=O)N[C@H](C(=O)N[C@@H](CCC(=O)O)C(=O)N[C@@H](Cc1ccncc1)C(=O)N[C@@H](CC(C)C)C(=O)N[C@@H](CC(C)C)C(=O)N[C@@H](CCC(=O)O)C(=O)N[C@@H](CCC(N)=O)C(=O)NCC(=O)N1CCC[C@H]1C(=O)N[C@@H](CO)C(=O)N[C@@H](CO)C(=O)NCC(=O)N[C@@H](C)C(=O)N1CCC[C@H]1C(=O)N1CCC[C@H]1C(=O)N1CCC[C@H]1C(=O)N[C@@H](CO)C(N)=O)C(C)C)[C@@H](C)CC
For B1, the “hGLP1R cAMP Rel EC50” value with human GLP-1 receptor was more than 5000 nM. Moreover, in the assay with human glucagon receptor, the “hGcgR cAMP Rel EC50” value was found to be 863 nM. Moreover, the “hGIPR cAMP Rel EC50” value in assay [1] is 0.0294 nM.

B2: Example 45 (peptide)
peptide: Y[Aib]EGTFISDYSI[αMeL]LDKK([AEEA-AEEA-γGlu-C20 diacid])HQ[Aib]DFVE[4Pal]LLETGPSSGAPPPS-NH2
modifications: N-terminus assumed
SMILES: CC[C@H](C)[C@H](NC(=O)[C@H](Cc1ccccc1)NC(=O)[C@@H](NC(=O)CNC(=O)[C@H](CCC(=O)O)NC(=O)C(C)(C)NC(=O)[C@@H](N)Cc1ccc(O)cc1)[C@@H](C)O)C(=O)N[C@@H](CO)C(=O)N[C@@H](CC(=O)O)C(=O)N[C@@H](Cc1ccc(O)cc1)C(=O)N[C@@H](CO)C(=O)N[C@H](C(=O)N[C@@](C)(CC(C)C)C(=O)N[C@@H](CC(C)C)C(=O)N[C@@H](CC(=O)O)C(=O)N[C@@H](CCCCN)C(=O)N[C@@H](CCCCNC(=O)COCCOCCNC(=O)COCCOCCNC(=O)CC[C@H](NC(=O)CCCCCCCCCCCCCCCCCCC(=O)O)C(=O)O)C(=O)N[C@@H](Cc1c[nH]cn1)C(=O)N[C@@H](CCC(N)=O)C(=O)NC(C)(C)C(=O)N[C@@H](CC(=O)O)C(=O)N[C@@H](Cc1ccccc1)C(=O)N[C@H](C(=O)N[C@@H](CCC(=O)O)C(=O)N[C@@H](Cc1ccncc1)C(=O)N[C@@H](CC(C)C)C(=O)N[C@@H](CC(C)C)C(=O)N[C@@H](CCC(=O)O)C(=O)N[C@H](C(=O)NCC(=O)N1CCC[C@H]1C(=O)N[C@@H](CO)C(=O)N[C@@H](CO)C(=O)NCC(=O)N[C@@H](C)C(=O)N1CCC[C@H]1C(=O)N1CCC[C@H]1C(=O)N1CCC[C@H]1C(=O)N[C@@H](CO)C(N)=O)[C@@H](C)O)C(C)C)[C@@H](C)CC
Regarding B2, the “hGLP1R cAMP Rel EC50” value with human GLP-1 receptor was more than 5000 nM. Moreover, the “hGcgR cAMP Rel EC50” value with human glucagon receptor turned out to be 1690 nM. For the same molecule, the “hGIPR cAMP Rel EC50” value in assay [1] was found to be 0.049 nM.

(Values after patent publication US20210032299A1 (Eli Lilly, published 2021).)
